In patent US20180022820A1:

Legend:
[1] = molecular target: FcRn (Sino Biological Inc, CT009-H08H) (UniProt P55899); assay: SPR (Biacore X100), FcRn-His captured on anti-His IgG chip, antibody as analyte, steady-state affinity fit; first run
[2] = molecular target: FcRn (Sino Biological Inc, CT009-H08H) (UniProt P55899); assay: SPR (Biacore X100), FcRn-His captured on anti-His IgG chip, antibody as analyte, steady-state affinity fit; second run
[3] = molecular target: FcRn (Sino Biological Inc, CT009-H08H) (UniProt P55899); assay: SPR (Biacore X100), FcRn-His captured on anti-His IgG chip, antibody as analyte, steady-state affinity fit; mean of the two runs

Kd [1]: 534 nM
Kd [2]: 450 nM
Kd [3]: 492 nM
Substance: MIL41: a PERJETA sample as prepared by the inventors, which is in consistence with the amino acid sequence of PERJETA (antibody)
